In patent US20240059759A1:
“And” between values parts separate entries of the source, which are not always exact repeats. Equal entries are not always repeated. Where two headings read alike, the source gives them in different places.

Experiments:
[1] = target: SARS-CoV-2 Spike RBD-His Tag, Sino Biological (SARS-CoV-2)
[2] = target: SARS-CoV-2 Spike RBD-His Tag, Sino Biological (SARS-CoV-2); remark: listed apart in the source
[3] = target: SARS-CoV-2 Spike RBD-His Tag, Sino Biological (SARS-CoV-2); remark: listed apart in the source
[4] = target: SARS-CoV-2 Spike RBD-His Tag, Sino Biological (SARS-CoV-2); remark: listed apart in the source
[5] = target: SARS-CoV-2 Spike RBD-His Tag, Sino Biological (SARS-CoV-2); remark: listed apart in the source
[6] = target: SARS-CoV-2 Spike RBD-His Tag, Sino Biological (SARS-CoV-2); remark: listed apart in the source
[7] = target: SARS-CoV-2 Spike RBD-His Tag, Sino Biological (SARS-CoV-2); remark: listed apart in the source
[8] = target: SARS-CoV-2 Spike RBD-His Tag, Sino Biological (SARS-CoV-2); remark: listed apart in the source
[9] = target: SARS-CoV-2 Spike RBD-His Tag, Sino Biological (SARS-CoV-2); remark: listed apart in the source
[10] = target: SARS-CoV-2 Spike RBD-His Tag, Sino Biological (SARS-CoV-2); remark: listed apart in the source
[11] = target: SARS-CoV-2 Spike RBD-His Tag, Sino Biological (SARS-CoV-2); remark: listed apart in the source
CoV-2 (SARS-CoV-2) [12] = target: CoV-2 (SARS-CoV-2)
CoV-2 (SARS-CoV-2) [13] = target: CoV-2 (SARS-CoV-2); remark: listed apart in the source
CoV-2 (SARS-CoV-2) [14] = target: CoV-2 (SARS-CoV-2); remark: listed apart in the source
[15] = target: SARS-CoV-2 Spike RBD-His Tag, Sino Biological (SARS-CoV-2); remark: listed apart in the source
[16] = target: SARS-CoV-2 Spike RBD-His Tag, Sino Biological (SARS-CoV-2); remark: listed apart in the source
[17] = target: SARS-CoV-2 Spike RBD-His Tag, Sino Biological (SARS-CoV-2); remark: listed apart in the source
[18] = target: SARS-CoV-2 Spike RBD-His Tag, Sino Biological (SARS-CoV-2); remark: listed apart in the source
[19] = target: SARS-CoV-2 Spike RBD-His Tag, Sino Biological (SARS-CoV-2); remark: listed apart in the source
[20] = target: SARS-CoV-2 Spike RBD-His Tag, Sino Biological (SARS-CoV-2); remark: listed apart in the source
[21] = target: SARS-CoV-2 Spike RBD-His Tag, Sino Biological (SARS-CoV-2); remark: listed apart in the source
[22] = target: SARS-CoV-2 Spike RBD-His Tag, Sino Biological (SARS-CoV-2); remark: listed apart in the source
CoV-2 (SARS-CoV-2) [23] = target: CoV-2 (SARS-CoV-2); remark: listed apart in the source
CoV-2 (SARS-CoV-2) [24] = target: CoV-2 (SARS-CoV-2); remark: listed apart in the source
CoV-2 (SARS-CoV-2) [25] = target: CoV-2 (SARS-CoV-2); remark: listed apart in the source
CoV-2 (SARS-CoV-2) [26] = target: CoV-2 (SARS-CoV-2); remark: listed apart in the source
[27] = target: SARS-CoV-2 Spike RBD-His Tag, Sino Biological (SARS-CoV-2); remark: listed apart in the source
CoV-2 (SARS-CoV-2) [28] = target: CoV-2 (SARS-CoV-2); remark: listed apart in the source

B1: vhh_tstrep_sars2_pjl1_L_74 (VHH)
VHH: QVQLQESGGGLVQAGGSLRLSCAASGRTFSEYAMGWFRQAPGKEREFVATISWSGGATYQTDSVKGRFTISRDNAKNTVYLQMNSLKPDDTAVYYCAAAGLGTVVSEWDYDYDYWGQGTQVTVSS
With B1 the xmid (log10) [1] was -0.787 and the xmid (log10) [2] was -0.413.

B2: vhh_tstrep_sars2_pjl1_L_75 (VHH)
VHH: QVQLQESGGGLVQAGGSLRLSCAASGRTFSEYAMGWFRQAPGKEREFVATISWSGGATYSTDSVKGRFTISRDNAKNTVYLQMNSLKPDDTAVYYCAAAGLGTVVSEWDYDYDYWGQGTQVTVSS
For B2, the xmid (log10) [3] was -0.0338 and the xmid (log10) [4] was 0.0467.

B3: vhh_tstrep_sars2_pjl1_L_115 (VHH)
VHH: QVQLQESGGGLVQAGGSLRLSCAASGRTFSEYAMGWFRQAPGKEREFVATISWSGGATYHTDSVKGRFTISRDNAKNTVYLQMNSLKPDDTAVYYCAAADLGTVVSEWDYDYDYWGQGTQVTVSS
B3 was tested, and the xmid (log10) [5] was -0.277 and the xmid (log10) [6] was 0.0337.

B4: vhh_tstrep_sars2_pjl1_L_145 (VHH)
VHH: QVQLQESGGGLVQAGGSLRLSCAASGRTFSEYAMGWFRQAPGKEREFVATISLSGGATYHTDSVKGRFTISRDNAKNTVYLQMNSLKPDDTAVYYCAAAGLGTVVSEWDYDYDYWGQGTQVTVSS
Binder B4 has a xmid (log10) [7] of 0.562 and a xmid (log10) [8] of 0.668.

B5: vhh_tstrep_sars2_pjl1_L_144 (VHH)
VHH: QVQLQESGGGLVQAGGSLRLSCAASGRTFSEYAMGWFRQAPGKEREFVATSSWSGGATYHTDSVKGRFTISRDNAKNTVYLQMNSLKPDDTAVYYCAAAGLGTVVSEWDYDYDYWGQGTQVTVSS
Work on B5 yielded a xmid (log10) [9] of -0.0515 and a xmid (log10) [10] of 0.491.

B6: vhh_tstrep_sars2_pjl1_L_139 (VHH)
VHH: QVQLQESGGGLVQAGGSLRLSCAASGRTFSEYAMGWFRQAPGKEREFVATISWSGGATYHTDSVKGRFTISRDNAKNTVYLQMNSLKPDDTAVYYCAAAGLGTVVSEWDYDFDYWGQGTQVTVSS
Work on B6 yielded a xmid (log10) [11] of 0.366.

B7: vhh_tstrep_sars2_pjl1_L_1 (VHH)
VHH: QVQLQESGGGLVQAGGSLRLSCAASGRTFSEYAMGWFRQAPGKEREFVATISWSGGSTYYTDSVKGRFTISRDNAKNTVYLQMNSLKPDDTAVYYCGAAGLGTVVSEWDYDYDYWGQGTQVTVSS
For B7, the xmid (log10) (CoV-2 (SARS-CoV-2) [12]) was 0.321, the xmid (log10) (CoV-2 (SARS-CoV-2) [13]) was 0.903 and the xmid (log10) (CoV-2 (SARS-CoV-2) [14]) was 0.839.

B8: vhh_tstrep_sars2_pjl1_L_80 (VHH)
VHH: QVQLQESGGGLVQAGGSLRLSCAASGRTFSEYAMGWFRQAPGKEREFVATISWSGGATYYTRSVKGRFTISRDNAKNTVYLQMNSLKPDDTAVYYCAAAGLGTVVSEWDYDYDYWGQGTQVTVSS
Work on B8 yielded a xmid (log10) [4] of -0.61 and a xmid (log10) [15] of -0.743.

B9: vhh_tstrep_sars2_pjl1_L_113 (VHH)
VHH: QVQLQESGGGLVQAGGSLRLSCAASGRTFSEYAMGWFRQAPGKEREFVATISWSGGATYHTDSVKGRFTISRDNAKNTVYLQMNSLKPDDTAVYYCAAAGLGTVVSEWDFDYDYWGQGTQVTVSS
In the case of B9, the xmid (log10) [16] is reported as -0.0032 and the xmid (log10) [17] is reported as 0.334.

B10: vhh_tstrep_sars2_pjl1_L_114 (VHH)
VHH: QVQLQESGGGLVQAGGSLRLSCAASGRTFSEYAMGWFRQAPGKEREFVATISWSGGATYHTDSVKGRFTISRDNAKNTVYLQMNSLKPDDTAVYYCAPAGLGTVVSEWDYDYDYWGQGTQVTVSS
B10 showed a xmid (log10) [16] of 0.263 and a xmid (log10) [8] of 0.526.

B11: vhh_tstrep_sars2_pjl1_L_77 (VHH)
VHH: QVQLQESGGGLVQAGGSLRLSCAASGRTFSEYAMGWFRQAPGKEREFVATISWSGGATYHTDSVKGRFTISRDNAKNTVYLQMNSLKPDDTAVYYCAAAGLGTVVSEWDYDYDYWGQGTQVTVSS
Work on B11 yielded a xmid (log10) [3] of -1.22, a xmid (log10) [18] of -1.54 and a xmid (log10) [4] of -1.42. The xmid (log10) [5] was -1.54, the xmid (log10) [10] was -1.6 and the xmid (log10) [19] was -1.49. The xmid (log10) [20] was -1.54, the xmid (log10) [11] was -1.66 and -1.72 and the xmid (log10) [6] was -1.92.

B12: vhh_tstrep_sars2_pjl1_L_99 (VHH)
VHH: QVQLQESGGGLVQAGGSLRLSCAASGRTFSEYAMGWFRQAPGKEREFVATISWSGGATYYTDSVKGRFTISRDNAKNTVYLQMNSLKPDDTAVYYCAAAGLGTVVSEWAYDYDAWGQGTQVTVSS
With B12 the xmid (log10) [21] was -0.202 and the xmid (log10) [22] was -0.384.

B13: vhh_tstrep_sars2_pjl1_L_150 (VHH)
VHH: QVQLQESGGGLVQAGGSLRLSCAASGRTFSEYAMGWFRQAPGKEREFVATISWSGGAGYHTDSVKGRFTISRDNAKNTVYLQMNSLKPDDTAVYYCAAAGLGTVVSEWDYDYDYWGQGTQVTVSS
Binder B13 has a xmid (log10) [8] of 0.171 and a xmid (log10) [9] of 0.879.

B14: vhh_tstrep_sars2_pjl1_L_35 (VHH)
VHH: QVQLQESGGGLVQAGGSLRLSCAASGRTFSEYAMGWFRQAPGKEREFVATISWSGGSTYYTDSVKGRFTISRDNAKNTVYLQMNSLKPDDTAVYYCAGAGLGTVVSEWDYDYDYWGQGTQVTVSS
Binder B14 has a xmid (log10) (CoV-2 (SARS-CoV-2) [13]) of 0.231, a xmid (log10) (CoV-2 (SARS-CoV-2) [23]) of -0.501 and a xmid (log10) (CoV-2 (SARS-CoV-2) [24]) of 0.355.

B15: vhh_tstrep_sars2_pjl1_L_47 (VHH)
VHH: QVQLQESGGGLVQAGGSLRLSCAASGRTFSEYAMGWFRQAPGKEREFVATISWSGGSTYYTDSVKGRFTISRDNAKNTVYLQMNSLKPDDTAVYYCAAAGLGTVVSEWDYDADYWGQGTQVTVSS
Binder B15 has a xmid (log10) (CoV-2 (SARS-CoV-2) [25]) of -0.708, a xmid (log10) (CoV-2 (SARS-CoV-2) [14]) of 1.45 and a xmid (log10) (CoV-2 (SARS-CoV-2) [24]) of 0.716.

B16: vhh_tstrep_sars2_pjl1_L_112 (VHH)
VHH: QVQLQESGGGLVQAGGSLRLSCAASGRTFSEYAMGWFRQAPGKEREFVATISWSGGATYHTDTVKGRFTISRDNAKNTVYLQMNSLKPDDTAVYYCAAAGLGTVVSEWDYDYDYWGQGTQVTVSS
Binder B16 has a xmid (log10) [16] of -1.14 and a xmid (log10) [8] of -1.27.

B17: vhh_tstrep_sars2_pjl1_L_4 (VHH)
VHH: QVQLQESGGGLVQAGGSLRLSCAASGRTFSEYAMGWFRQAPGKEREFVATISWSGGSTYYTDSVKGRFTISRDNAKNTVYLQMNSLKPDDTAVYYCAAGGLGTVVSEWDYDYDYWGQGTQVTVSS
In the case of B17, the xmid (log10) (CoV-2 (SARS-CoV-2) [12]) is reported as -0.0058, the xmid (log10) (CoV-2 (SARS-CoV-2) [26]) is reported as 0.673 and the xmid (log10) (CoV-2 (SARS-CoV-2) [14]) is reported as 0.752.

B18: vhh_tstrep_sars2_pjl1_L_79 (VHH)
VHH: QVQLQESGGGLVQAGGSLRLSCAASGRTFSEYAMGWFRQAPGKEREFVATISWSGGATYTTDSVKGRFTISRDNAKNTVYLQMNSLKPDDTAVYYCAAAGLGTVVSEWDYDYDYWGQGTQVTVSS
For B18, the xmid (log10) [1] was -1.02 and the xmid (log10) [2] was -1.01.

B19: vhh_tstrep_sars2_pjl1_L_76 (VHH)
VHH: QVQLQESGGGLVQAGGSLRLSCAASGRTFSEYAMGWFRQAPGKEREFVATISWSGGATYETDSVKGRFTISRDNAKNTVYLQMNSLKPDDTAVYYCAAAGLGTVVSEWDYDYDYWGQGTQVTVSS
B19 gave a xmid (log10) [3] of -0.184 and a xmid (log10) [27] of -0.368.

B20: vhh_tstrep_sars2_pjl1_L_27 (VHH)
VHH: QVQLQESGGGLVQAGGSLRLSCAASGRTFSEYAMGWFRQAPGKEREFVATISWSGGSTYYTDSVKGRFTISRDNAKNTVYLQMNSLKPDDTAVYYCAAAGLATVVSEWDYDYDYWGQGTQVTVSS
B20 was tested, and the xmid (log10) (CoV-2 (SARS-CoV-2) [25]) was 0.178, the xmid (log10) (CoV-2 (SARS-CoV-2) [26]) was 0.407 and the xmid (log10) (CoV-2 (SARS-CoV-2) [28]) was 0.577.
